How the values were obtained:
RAW 264.7 cells = test: MTT cytotoxicity on osteoclast precursor RAW 264.7 cells (PEG series); format: cell-based, mouse; settings: 100, 500 and 1000 nM sCT or equivalent, 4 hours incubation
Method: RAW 264.7 cells (ATCC VA, USA) were seeded on 96 well plates at an initial density of 2×10^4 cells/well and incubated in 200 μl GIBCO High Glucose 1× Dulbecco's Modified Eagle Medium (DMEM) (Invitrogen CA, USA) supplemented with 4.5 g/L D-Glucose, L-Glutamine, 110 mg/L Sodium Pyruvate, 10% heat inactivated fetal bovine serum (FBS) and 1% Penicillin-Streptomycin (10000 U/mL; Invitrogen) in a Thermo Fisher Scientific Water Jacketed CO2 incubator (37° C., 5% CO2) until the cells were 80% confluent.
After 72 hrs, media was replaced by 200 μl basic DMEM media without FBS and incubated for 30 minutes. […] After removing the supernatant and washing twice with phosphate buffer saline, purple formazan crystals formed were dissolved in 200 μl solubilization solution (in vitro toxicology assay kit, # TOX-1, Sigma Aldrich, St. Louis, USA) and the absorbance was measured at 570 nm using microplate reader. Experiment was performed for n=8 and the absorbance of wells containing cells without sCT treatment was considered as 100% viable and used to calculate the relative viability of sCT treated cells.
In all in vitro and in vivo bioactivity assay the maximum concentration used was equivalent to 100 nM sCT. However, cytoxicity was determined for the concentration up to 1000 nM sCT or equivalent. […]

[1] = Bone mineral specificity: calcium oxalate binding assay; settings: 1 h, 100 mM phosphate buffer pH 7
Method: (§1) Bone targeting potential of sCT analogue was evaluated by determining the effect of sCT modification (due to chemical coupling) upon its bone mineral affinity. Specific volume of purified sCT analogue solution containing 10 μg of sCT was mixed with 1 mg Hydroxyapatite (HA) in 150 μL 100 mM phosphate buffer (pH 7.0) in microcentrifuge tubes in duplicate to give a final concentration of 66.67 μg/ml sCT. As a reference, control samples were incubated in tubes without HA (i.e., 0% of binding).
(§2) The tubes were incubated at room temperature on a shaker for 1 h, and centrifuged at 5000 g for 5 minutes to separate the HA from the supernatant. sCT concentration in the supernatant was determined using the BCA microprotein assay (Pierce, USA) as described above. HA centrifugate remaining after removal of supernatant was washed five times using 1 mL buffer each time and the last washing after centrifugation at 5000 g for 5 minutes was collected. Both the washings and the HA centrifugate were then analyzed for sCT as described above. The amount of sCT in the supernatant, washings and HA centrifugate was then inferred by measuring the absorbance at 562 nm, with a value of 100% for control samples without HA.
Bone mineral specificity of sCT analogue was then determined in the above manner using HA, calcium carbonate, calcium pyrophosphate, tricalcium phosphate and calcium oxalate.

[2] = Circular dichroism, secondary structure of sCT, sCT-PEG and sCT-PEG-BP; format: physicochemical; settings: 20 mM acetate buffer pH 5.0, ~400 μg/mL sCT or equivalent
Method: For a more detailed analysis of the influence of structural alteration of sCT on secondary structure of sCT analogue, the circular dichroism (CD) spectrum of sCT, sCT-PEG and sCT-PEG-BP was measured in the 20 mM acetate buffer pH 5.0. CD spectra were obtained with a ConvCD spectrophotometer instrument. Spectra were acquired over a wavelength range of 190 to 260 nm. The N2 flow rate was set at 5 l/min. The sample cuvette (100 μL) was cleaned with 20 mM Sodium Acetate buffer pH 5, and the spectra of test samples, which comprised of ˜400 μg/mL of sCT or equivalent the same buffer, were recorded with the corresponding buffer serving as blanks.

[3] = Hydroxyapatite (HA) binding assay, bone mineral affinity; settings: 10 μg sCT, 1 mg HA, 1 h, 100 mM phosphate buffer pH 7.0
Method: as §1, §2

For “Salmon calcitonin [sCT, reference compound]”, the “cytotoxicity (absorbance of formazan solution) compared to untreated media” value (RAW 264.7 cells) was “low levels of cytotoxicity”, the “sCT recovered in supernatant after incubation with Calcium oxalate” value [1] was “did not significantly reduce the sCT concentration in the supernatant” and the “secondary structure by CD spectrum” value [2] was “random coil conformation”. For the same substance, the “sCT bound in HA” value [3] was “did not significantly bind to HA”.
